Measured values taken from patent US20040175364A1.

Biological target: Adenovirus 5 receptor (cell surface fiber receptor on HeLa cells)
Assay: cell-based or functional assay

Substance: Adenovirus 5 fiber protein (from UniProt P11818 1-581) (ligand)
- percentage of adenoviral transduction of HeLa cells by Av1LacZ4 (β-galactosidase positive cells) after preincubation with competitor fiber: 0.1 to 1 pg/mL
